From the nanobody polyreactivity screen of Harvey et al. (2022) come the findings set out here.

The data set can be described thus: yeast display, Sf9 membrane polyspecificity reagent, FACS + sequencing; frameworks hold sequencing errors. Put shortly: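 Galactose induction of a Saccharomyces cerevisiae BJ5465 synthetic nanobody display library ran 36–48 hours. The cells were then stained for 1 hour at 4 °C with 10% biotinylated, detergent-solubilized Sf9 membrane reagent, pulled down on streptavidin microbeads and FACS-sorted into low and high (top ~1%) gates on expression and reagent-binding fluorescence. Labels for polyreactivity follow the gate of origin.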
As for “QVQLVESGGGLVQAGGSLRLSCAPSGYIFYDNAMGWYRQAPGKEREFVAAITFSGDSTDYADSVKGRFTISRDNAKNTVYLQMNSLKPEDTAVYYFNTVYYRYYIELYFSSYDYWGQGTQVTVSS”, the “polyreactivity (PSR sort gate)” value is listed as “high polyreactivity”.
Take “QVQLVESGGGLLQAGGSLRLSCAASRSTFFWYAMGWYRQAPGKERELVAANSKTGGSTYYADSVKGRFTISRDNAKNTVYLQMNSLKPEDTAVYYCARDYSWYYYGSQLFAHDYWGQGTQVTVSS”: the “polyreactivity (PSR sort gate)” value is on record as “low polyreactivity”.
As to “QVQLVESGGGLVQAGGSLRLSCAASGRTLRHYAMGWYRQAPGKERELVAAISSTGSSTYYADSVKGRFTISRDNAKNTVYLQMNSLKPEDTAVYYCAADKYTWDAGGVDYWGQGTQVTVSS”, the “polyreactivity (PSR sort gate)” value is “low polyreactivity”.
With “QVQLVESGGGLVQAGGSLRLICAASGLTFPTYAMAWYRQAPGKERELVAAISRIGGRTYYADSVKGRFTISRDNAKNTVYLQMNSLKPEETAVYYCAADGIKGGVEYDYWGQGTQVTVSS”, the “polyreactivity (PSR sort gate)” value is listed as “high polyreactivity”.
Take “QVQLVETGGGLVQAGGSLRISCAPSGSIFQRYAMGWYTQAPGKERELVAAITGSGGSTYYADSVMWRFTISRDNAKKTVYLQMNILKPEDSAVYYCAKRYPSRQYTLYNYWGLGTQVTVSS”: the “polyreactivity (PSR sort gate)” value is “high polyreactivity”.
“QVQLVESGGGLFQAGGSLRITCSPSGFIFHGYAMGWYRQAPGKERELVAAISTGTNTNYADSLKGRFTISRDNAKNTVYIQMNRLKPEDTAVYYCNARSADTWYTSRRFYYWGQGTQVTVSS”: the “polyreactivity (PSR sort gate)” value is recorded as “low polyreactivity”.
Then “QVQLVESGGGLVQAGGSLRLSCAASGSTLAQYAMGWYRQAPGKETELVADISWSGGSTYYADSVKGRFTISRDNAKNTVYLQMNSLKPDDTAVYYCNAYAFDSVREEDYWGQGTQGTVSS”, with “low polyreactivity”; and “QVQLVESGGGLVQAGGSLRLSCAASGRTFISYAMGWYRQAPGKERELVAAISWSGGRTSYADSVKGRFTISRDNAKNTVYLHMNSLKPEDTAVYYCNAQYNSWFAIKDYDYWGQGTQVTVSS”, with “low polyreactivity”.
For the sequence “QVQLVESGGGLVQAGGSLRLSCAASGLTFPWYAMGWYRQAPGKERELVASINSSTGSTYYADSVKGRFTISRDNAKNTVYLQMNSLKPEDTAVYYCAAVEYGNMDWGQGTQVTVSS”, the “polyreactivity (PSR sort gate)” value was “low polyreactivity”.
The result for “QVQLVESWGGLVQAGGSLRISCAASGRTFPDYAMGWYRQAPGKERELVAAISSGGGTYYADSVKGRFTISRDNAKNTVFLQMNSLKPEDTAVYYCAATGVPGWVGFDYCGQGTQVTVSS” reads “low polyreactivity”; that for “QVQLVESGGGLVQAGGSLRLSCADSGRTIPFYAMGWYRQAPGKERELVAAISSSAGRTYYADSVKGRFTISRDNAKNTVSLQMNSLKPEDTAVYYCAARLYGRYRYDYWGQGTQVTVSS”, “low polyreactivity”; that for “QVQLVESGGGLVQAGGSLRLSCAASGSIFGYNAMGWYRQAPGKEREFVAAISWSGGRTYYADSVKGRFTISRDNAKNTVYLQMNSLKPEDTAVYYCAAPSRPAPRFDYWGQGTQVTVSS”, “low polyreactivity”.
With “QVQLVESGGGLLQAGGSLRLSCAASVRIFYGYAMGWYRQAPGKERELVAAIDSVGDKYYADSVKGRFTISRDNAKNTVYLQMNSLNPEDTAVYSCAADRTGRIVLSPTDEMDYWGQGTQVSVSS”, the “polyreactivity (PSR sort gate)” value is reported as “low polyreactivity”.
Then “QVQLVESGGGLVQAGGSLRLSCDASGRTFPEYGMGWYRQAPGKEREFVAAISTRGGSTYYANSVKGRFTISRDNAKNTVYLQMNSLKPEDTAVYYCAAKYPGGETYPFDYWGQGTQVTVSS”, with “low polyreactivity”; and “QVQRVESAGGLVQAGGSLRLSCAASGFIFSWYAMGWYRQAPGKERELVAAIRWSSGRTYYADSVKGRFTISRDNAKNTVYVQMNSLKPEDTAVYYCNARSDIHNSYDYWGQGTQVTVSS”, with “high polyreactivity”.
Take “QVQLVESGGGLVQAGGSLRLSCAASGSIFGFYAMGWYRQAPGKERELVASISSSGDSTYYADSVKGRFTISRDNAKNTVYLQINSLKPEDTAVYYCAAVVYDIYGYEFDYWGQGTQVTVSS”: the “polyreactivity (PSR sort gate)” value was “low polyreactivity”.
As for “QVHLVETGGGLVQAGGSLRLSCAASGSIFSSYHMVWYRQAPGKERELVASISSGGSTNYADSVKGRFTISRDNAKNTVYLHMNSLNPEVTAVYYCNVDLYNWRGDSTGYDYWGQGTQVTVSS”, the “polyreactivity (PSR sort gate)” value is reported as “low polyreactivity”.
Then “QVQLVESGGALVQAGGSLRLNCAASGRIFVYNDMGWYRQAPGNERDLVAAISSVGTTYYADSVKGRFTISRDNAKFTVYLQMKTLKPVETAVYDCDVTRYHSPPRYYFWGQGSQVTVSS”, with “low polyreactivity”.
Take “QVQLVESGGGLVQAGGSLRLSCASSGRTFTPYAMGWSTQAPGKERELVAAISRRAGTTYYADSVKGRFTISRDKAKNYGFLQMNRLKPEETEVYYCAALTESSSYGYWGQGTQVNVSS”: the “polyreactivity (PSR sort gate)” value is “low polyreactivity”.
For the sequence “QVQLVESGGGLVQAGGSLRLSCAASGSTFLRNAMGWYRQAPGKERELVATITNGGSTYYADSVKGRFTISRDNAKNTVYLQMNSLKPEDTAVYYCATRSSYWSWLRYGYGYWGQGTQVTVSS”, the “polyreactivity (PSR sort gate)” value is on record as “low polyreactivity”.
The result for “QVQLVESGGGLVQSGGSLRLSSAAYGFIFPGNAMGWSRQAPGKEREMVAAISNSGSRTYYADSVKGRFTISRDHAKNTVYLQMNSLKPEDTAVYYCNADVHNRGWPYDYWGQGTQVTVSS” reads “low polyreactivity”; that for “QVQLVESGGGLVQAGGSLRLSCAASGLIFWHYAMGWYRQAPGKERELVAAISRRGGSTYYADSVKGRFTISRDNAKNTVYLQMNSLKPEDTAVYYCAADVWGSSAQRGWRKDYYWGQGTQVTVSS”, “high polyreactivity”; that for “QVQLVESGGGLVQAGGSLRLSCAASGIIFKYYAMGWYRQAPGKERELVAAISRSSGSTYYADSVKGRFTISRDNAKNTVYLQMNSLKPEDTAVYYCAASGWPQKYDYWGQGTQVTVSS”, “high polyreactivity”.
Then “QVQLVESGGGLVQAGGSLRLSCAASGFIFYKYAMGWYRQAPGKERELVAAITRSGGSTFYADSVKGRFTISRDNAKNTVYLQMNSLKPEDTAVYYCAADAIVQVTPRPRRYDYWGQGTQVTVSS”, with “high polyreactivity”.
Then “QVQLVESGGGLVQAGGSLRLSCAASGRIFKSNAMGWYRQAPGKEWELVASISRSGSTNYADSVKGRFTISRDNAKNTVYLQMNSLKPEDTAVYYCAKDPDAKGGGYDYWGQGTQVTVSS”, with “low polyreactivity”; and “QVQLVESGGGLVQAGGSLRLSCAASGIIFRNYAMGWYRQAPGKERELVAAISRNGGSTYYADSVKGRFTISRDNAKNTVYLQMNSLKPEDTAVYYCAARASYPNWTYYYWGKGTQVTVSS”, with “high polyreactivity”; and “QVQLVESGGGLVQAGGSLRLSCAASGRILASYAMGWYRQAPGKERELVAAIRYRGSTSYADSVKGRFTISRDNAKNTVYLQMNSLKPEDTAVYYCNAGLEYYYWGYTWEFDYWGQGTQVTVSS”, with “low polyreactivity”.
Regarding “QVQLVESGGGLVQAGGSLRLSCAASGRTLRQYAMGWYRQAPGKERELVAAISRGGSTTYADSVKGRFTISRDNAKNTVYIQMNSLKPEDTAVYYCAAVSSKGNRHEYDYWGQGTQVTVSS”, the “polyreactivity (PSR sort gate)” value is given as “low polyreactivity”.
As for “QVQLVESGGGLVQAGGSLRLSCAASGLTFAKYAMGWYRQAPGKERELVAAIRSGDDTTYADSVKGRFTISRDNAMNTVYLQMISLKPEDTAVYYCAARPIHYPPYYYWGQGTQVTVSS”, the “polyreactivity (PSR sort gate)” value was “high polyreactivity”.
Then “QVQLVESGGGLVQAGGSLRLSCAASGSIFGRYGMVWSRPAPGKERELVAAITSATRTNYADSVKGRFTISRDNAKNTVYLQMNSLKPEDTAVYYCAKQTYRRLPQTPYNYWGQGSQVTVSS”, with “low polyreactivity”; and “QVQLVESGGGIVQAGGSLRVSCAASGFTFHKYAMGWYRQAPGTERELVAVISQSASSTYYADSVKGRFTISRDNAKNTVYFQMNGLKPEDTAVYYCNAKYYRYNRRNYWGQVTQVTVSS”, with “high polyreactivity”; and “QVQHVESGGGLVQAGGILRFSSPASGGTVNINAMGWYIQAPGKERELFADISYSDGTTDYADSVKGRFTISRDNAKNTVYLQMNSLKPEDTAVYYCAAYYYYYSGFGQRSYSWGQGTNVTVSS”, with “low polyreactivity”.
The result for “QVQLVESGGGLVQAGGSLRLSCAASGRIFYSYAMGWYRQAPGKERELVAAIDESDGSPYYADSVKGRFTISRDNAKNTVYLQMNSLKPEDTAVYYCAADSLLVLFDYWGQGTQVTVSS” reads “low polyreactivity”; that for “QVQLVESGGGIVQAGGSLRLSCAASGITIQGYTMGWYRQEPGKERELVAAISSNGGRTYYADSVKGSFTISRDNAKNTVYLQMNSLKPEDTAVDYCAARKWRLIVDYWGEGTQVTVSS”, “high polyreactivity”; that for “QVQLVESGGGLVQAGGSLRLSCAASGSTFTYNAMGWYRQAPGKERELVAAIRSNGGSTYYADSVKGRFTISRDNAKNTVYLQMNSLKPEDTAVYYCAARLSVLGGYRGRNAWRFDHWGLGTQVTVSS”, “high polyreactivity”.
Consider “QVQLVESGGGLVQAGGSLRLSCAASGSTLVGNTMGWYRQAPGKERELVAAITGVGSRNYADSVKGRFTISRDNAKNTVYLQMNSLKPEDTALYYCAAETWYSVLWEEGYDYWGHGTQVTVSS”, for which the “polyreactivity (PSR sort gate)” value is listed as “low polyreactivity”.
Take “QVQLVESGGGLVQAGGSLRLSCAASGSIFRTNAMGWYRQAPGKERELVAAITGRGGSTYYADSVKGRFTISRNNAKNTVYLQMNSLKPEDTAVYYCAADTWYGYRYKYDYWGQGTQVTVSS”: the “polyreactivity (PSR sort gate)” value was “high polyreactivity”.
For the sequence “QVQLVYSGGGLVQAGGSLRISCAPSGRTYRKYAMGWYIQAPGKERELVAANSRSGGSTYYANSVKGRFTISRDIAKNTFYLQMNSLKPDDTAVYYCAAVPVHTGSLYWGFTTGYDYWGQVTQVTVSS”, the “polyreactivity (PSR sort gate)” value was “low polyreactivity”.
With “QVQLVESGGGLVQAGGSLRLSCAASGRIFYINAMGWYRQAPGKERELVASITGSGGRTYYADSVKGRFTISRDNAKNTVYLQMNSLKPEDTAVYYCNADLYVGYLYYLYDYWGQGTQVSVSS”, the “polyreactivity (PSR sort gate)” value was “low polyreactivity”.
In the case of “QVQLVESGGGLVQAGGSLRLSCAASGIIFWYYAMGWYRQAPGKERELVAAISQSGGSTYYADSVKGRFTISRDNAKNTVYLQMNSMKPEDTAVDYCAAKPFYWSLEYDYRGQGTQVTVSS”, the “polyreactivity (PSR sort gate)” value is reported as “high polyreactivity”.
Take “QVQLVESGGGLVQAGGSLRLSCAASGRTIGIYARGWYRQAPVKERELVADITIGGSTYYADSVKGRFTISRDNAKNTVFIQINSLKPEDTAVYYCAARNPGYTRTGRRYDSWGQGTQVTVSS”: the “polyreactivity (PSR sort gate)” value was “low polyreactivity”.
